Reference: paper PMC4125376

Assays:
C[C@H](O)C(=O)O = assay: purified protein; assay type: biochemical, Babesia microti; conditions: NAD+
[1] = system: NC(=O)c1ccc[n+]([C@@H]2O[C@H](COP(=O)([O-])OP(=O)(O)OC[C@H]3O[C@@H](n4cnc5c(N)ncnc54)[C@H](O)[C@@H]3O)[C@@H](O)[C@H]2O)c1; assay: purified protein; conditions: varied: cofactor

Substance “Babesia microti lactate dehydrogenase (BmLDH) (Babesia microti strain RI)” has a Km (C[C@H](O)C(=O)O) of 99.96 ± 22.33 mM and a Km [1] of 8.76 ± 0.57 mM.
